According to paper doi:10.1101/2025.07.31.667833, “Coiled-coil-mediated phase separation of Spef1 for non-centrosomal microtubule organization and function” (bioRxiv, 2025):

B1: full-length wild-type Spef1 (mouse) (natural protein, UniProt Q99JL1 1-234, looked up)
chain: MESSVDEEALHQLYLWVDNIPLSRPKRNLSRDFSDGVLVAELIKFYFPKMVEMHNYVPANSLQQKLSNWGHLNRKVLNKLNFSVPDDVMRKIAQCSPGVVELVLIPLRQRLEERQRRQKLGVGSLQELAPQDSSGYMDMGLPQKVRGEGAPALGEQLREGRPLASRPPGYNQALQGDPSFVLQIAEKEQELLASQETVQVLQMKVKRLEHLLQLKNVRIDDLSRRLQQAERKQR
notes: Spef1 (sperm flagellar protein 1, CLAMP), mouse, full length; also called WT; CLAMP; source: E. coli BL21(DE3), purified (Ni2+-Sepharose, size-exclusion chromatography)
B2: Spef1 K206A/R207A mutant (full-length) (natural protein, mouse, UniProt Q99JL1 1-234, looked up)
chain: MESSVDEEALHQLYLWVDNIPLSRPKRNLSRDFSDGVLVAELIKFYFPKMVEMHNYVPANSLQQKLSNWGHLNRKVLNKLNFSVPDDVMRKIAQCSPGVVELVLIPLRQRLEERQRRQKLGVGSLQELAPQDSSGYMDMGLPQKVRGEGAPALGEQLREGRPLASRPPGYNQALQGDPSFVLQIAEKEQELLASQETVQVLQMKVAALEHLLQLKNVRIDDLSRRLQQAERKQR
notes: Spef1, mouse, full length, with K206A and R207A on the coiled-coil surface; also called KR; charge-changing mutant; source: E. coli BL21(DE3), purified (Ni2+-Sepharose, size-exclusion chromatography)
B3: Spef1 E186A/E188A/E190A mutant (full-length) (natural protein, mouse, UniProt Q99JL1 1-234, looked up)
chain: MESSVDEEALHQLYLWVDNIPLSRPKRNLSRDFSDGVLVAELIKFYFPKMVEMHNYVPANSLQQKLSNWGHLNRKVLNKLNFSVPDDVMRKIAQCSPGVVELVLIPLRQRLEERQRRQKLGVGSLQELAPQDSSGYMDMGLPQKVRGEGAPALGEQLREGRPLASRPPGYNQALQGDPSFVLQIAAKAQALLASQETVQVLQMKVKRLEHLLQLKNVRIDDLSRRLQQAERKQR
notes: Spef1, mouse, full length, with E186A, E188A and E190A on the coiled-coil surface; also called charge-changing mutant; source: E. coli BL21(DE3), purified (Ni2+-Sepharose, size-exclusion chromatography)

Biological target: the molecule itself
Experiment: SEC-MALS; ~1 mg/ml protein in 50 mM Tris-HCl pH 8.0, 500 mM NaCl, 1 mM EDTA, 1 mM DTT; WTC SEC column, 18-angle light scattering; oligomeric state (dimer or monomer)

Stoichiometry N, 2:
B1
B2
B3
